Measured values published in patent US20240270826A1 (NATIONAL RESEARCH COUNCIL OF CANADA, published 2024).

B1: NRCoV2-MRed03 VHH-Fc (Fc fusion)
chain: EVQLVESGGGLVQPGGSLRLSCAAIGFTLDYYAIGWFRQAPGKEREGVSCISSSDGSTYYADSVKGRFTISRDNAKNTVYLQMNSLKPEDTAVYYCATDAFATCDSWYAQIAQYDFRGQGTQVTVSS
notes: bivalent VHH-Fc
B2: NRCoV2-MRed06 VHH-Fc (Fc fusion)
chain: EVQLVESGGGLVQAGGSLRLSCAASGFTLAYYAIGWFRQAPGKEREGVSCISSSDGSAHYADSVKGRFTISRDNAKNTVSLQMNSLKPEDTAVYYCATDSFSSCSDYESGMDFWGKGTQVTVSS
notes: bivalent VHH-Fc
B3: NRCoV2-SR16 VHH-Fc (Fc fusion)
chain: QVQLVQSAGGLVQAGGSLRLSCVVSGTTFSRYHMGWHRQAPGKQRDFVAGISTSGAVTYADSAKGRFTISRDNAKNTVYLEMNSLKLEDTALYYCNTGGWDYRSSTFIMGLNWGQGTQVTVSS
notes: bivalent VHH-Fc
B4: NRCoV2-SR02 VHH-Fc (Fc fusion)
chain: EVQLVDSGGGLVQAGGSLRLSCTASEFTLNYYSIGWFRQSPGKEREGVSCIRYSGGGIDYADSVKGRFTISRDNAKNTVYLTMNSLKPEDTAVYYCAADRLYSRACPTAGGRNYWGQGTQVTVSS
notes: bivalent VHH-Fc
B5: NRCoV2-14 VHH-Fc (Fc fusion)
chain: EVQLVSSGGGLVQAGGSLRLSCEASGTTFSHYAVGWYRQAPGKQREWVASISVFGSTTYGGSVAGRFTISRDNDKNTVDLQMNSLKPEDTAVYYCHAVNADIGGDYWGQGTQVTVSS
notes: bivalent VHH-Fc
B6: NRCoV2-04 VHH-Fc (Fc fusion)
chain: AVQLVDSGGGLVQPGGSLRLSCAASGSPFSNVVMAWYRQAPGKQRERVAFISGGGIADYIMSVKGRFTISRDNAKNTVYLQMNSLKPEDTAVYYCWSSYESTWGQGTQVTVSS
notes: bivalent VHH-Fc
B7: NRCoV2-15 VHH-Fc (Fc fusion)
chain: EVQLVSSGGGLVEAGGSLRLSCIASGSTSGRNTMGWFRQAPGKQREWVAIVSTSGATNYAGSVKGRFTLSRDNAKNAVYLQMNNLKPEDTAVYYCYAAYGGGGDYWGQGTQVTVSS
notes: bivalent VHH-Fc
B8: NRCoV2-1d VHH-Fc (Fc fusion)
chain: EVQLVESGGGSVQPGGSLRLSCAASGSTLDYYAIGWFRQAPGKEREWVSSVSSSDGNTLYADSVKGRFTISRDNAKNTVYLQMNSLKAEDTAVYVCAADYSMRPFAVGRWHRDYEYWGQGTQVTVSS
notes: bivalent VHH-Fc
B9: NRCoV2-10 VHH-Fc (Fc fusion)
chain: QLQLQESGGGLVQPGGSLTLSCAASGNTFSRSNMHWYRQAPGAQREWVAAISSRGISTYAYSAKGRFTISRDNAKNTVSLQMNSLKPEDTAVYYCYAADDLGDYWGQGTQVTVSS
notes: bivalent VHH-Fc
B10: NRCoV2-17 VHH-Fc (Fc fusion)
chain: EVQLQQSGGGLVQTGGSLRLSCAAAGSPFSQLAMSWYRQISGKERAWVASISPTGNRSYSKIAKGRFTISRDNAKNTVTLQMTSLKPEDTAAYICQAANVNGGDYWGQGTQVTVSS
notes: bivalent VHH-Fc
B11: NRCoV2-02 VHH-Fc (Fc fusion)
chain: EVQLVESGGGLVQAGGSLRLSCAASGFTFSNYAMNWVRQAPGKGLEWVSGISGRGDDTRYADSVKGRFTISRDNAKNTLFLQMRSLRPEDTGVYRCTKGPDLYYFGSGYSDRGQGTQVTVSS
notes: bivalent VHH-Fc
B12: NRCoV2-05 VHH-Fc (Fc fusion)
chain: EVKLVQSGGGLVQPGGSLRLSCAASGFIFSNYAMNWVRQAPGKGLEWVSGINSGGGDTRYADSVKGRFTVSRDNAKNTLYLQMNSLKPEDTGVYYCSKGPVSSYYGSGYDYRGQGTQVTVSS
notes: bivalent VHH-Fc
B13: NRCoV2-MRed05 VHH-Fc (Fc fusion)
chain: EVQLVESGGGLVQPGGSLRLSCAASGFTLDYYAIGWFRQAPGKEREGVSCISSSDGSTLYADSVKGRFTISRDNAKNTVYLQMNSLKPEDTAVYYCATGPQAYYSGSYYFQCPQAGMDYWGKGTQVTVSS
notes: bivalent VHH-Fc
B14: NRCoV2-MRed03 VHH (VHH)
VHH: B1 chain
B15: NRCoV2-MRed11 VHH (VHH)
VHH: EVQLVESGGGLVQAGGSLRLSCAASGFTFSSYAMSWHRQAPGKGLEWVSAINSGGGSTSYADSVKGRFAISRDNAKNTLYLQMNSLKPEDTAVYYCATTISDGSSWSTKSYRGQGTQVTVSS
B16: NRCoV2-MRed20 VHH (VHH)
VHH: EVQLVESGGGSVQAGGSLRLSCAASGLSFSSYDMGWFRQAPGKEREFVAAIRESGSGTYYADSVKGRFTISRDNAKNTVYLQVSSLKPEDTAVYTCAAKPPFYGSGTYSTPRAYLYWGQGTQVTVSS
B17: NRCoV2-MRed06 VHH (VHH)
VHH: B2 chain
B18: NRCoV2-MRed19 VHH (VHH)
VHH: EVQLVESGGGLVQPGGSLRLSCAASTIIFKGQTMGWFRQAPGNERELVATMTTSGSANYADSVKGRFTISRDNEKTVTLQMNSLKPEDTALYYCYMHSVYYGIDYWGKGTQVTVSS
B19: NRCoV2-MRed22 VHH (VHH)
VHH: EVQLVESGGGLVQPGGSLRLSCAASGSVFASNAMGWYRQAPGKQRELVATISSRGSTNYADSVKGRFTISRDNAKNTVYLQMNSLGPEDTAVYYCNAREFTGFDYWGQGTQVTVSS
B20: NRCoV2-MRed07 VHH (VHH)
VHH: EVQLVESGGGLVQPGGSLTLSCAASGSIGPFNTMGWYRQAPGNQREPAAIITRGGVTNYADSVKGRFTISRDNAKNAVYLQMDSLKPDDTAVYYCYANYGWAIPYWGNGTQVTVSS
B21: NRCoV2-MRed18 VHH (VHH)
VHH: EVQLVESGGGLVQPGGSLRLSCAASTTVFGRNAMGWYRQAPGKERELVATVSDGGTPNYADSVKGRFTISRDNAKNTIYLQMNSLEPEDTAVYYCNYYNYYYGRNFWGQGTQVTVSS
B22: NRCoV2-MRed25 VHH (VHH)
VHH: EVQLVESGGGLVQAGGSLRLSCAASGHTFSRYGMGWFRQAPGKEREFVAAISWRGDSTYYRDSVNGRFTISRDNAKNTVYLGMNSLKPEDTAVYYCAAEMWGTATIVASRYTYWGQGTQVTVSS
B23: NRCoV2-SR13 VHH-Fc (Fc fusion)
chain: EVQLVESGGGLVTTGGSLRLSCATSGSRFGSKHMAWYRQAPGKQRDLVAAISSGGSTHYGSSVKGRFTISRDNAKSTVYLQMNSLNPEDTAVFYCNMGGWDYRSNTYIPGSRSDYWGQGTQVTVSS
notes: bivalent VHH-Fc

Each binder was assayed against SARS-CoV spike (S) (SARS-CoV, UniProt P59594 14-1195) (assay: ELISA).
B1: no binding (tested: 13 nM). B2: no binding (tested: 13 nM). B3: no binding (tested: 13 nM).

What follows are binders tested against T1, SARS-CoV-2 S2 (aa686-1208) (Wuhan) (SARS-CoV-2 Wuhan, UniProt P0DTC2 686-1208) (assay: ELISA).
T1 construct: NRC; FLAG, 6xHis tags
B1: no binding (tested: 13 nM). B2: no binding (tested: 13 nM). B3: no binding (tested: 13 nM).

These binders were tested against T2, SARS-CoV-2 S on CHO-S cells (SARS-CoV-2, UniProt P0DTC2 14-1273) (assay: flow cytometry, CHO-S cells).
T2 construct: whole, on cells
With B1 the Bmax was 12000 and the EC50 was 15.1 nM. With B2 the Bmax was 9020 and the EC50 was 8.5 nM. B3 showed a Bmax of 11600 and an EC50 of 1.4 nM.

What follows are binders tested against Human SARS-CoV-2_Wuhan S (SmT1) (SARS-CoV-2 (Wuhan), UniProt P0DTC2 14-1208) (assay: flow cytometry SVNA: VHH-Fc inhibits S binding to ACE2 on Vero E6 cells).
B4 showed an IC50 of 1.7 nM. B5 was tested, and the IC50 was 7.5 nM. B6 was tested, and the IC50 was 10.8 nM. B7 gave an IC50 of 5.8 nM. Work on B8 yielded an IC50 of 4.7 nM. Work on B9 yielded an IC50 of 8.8 nM. Binder B10 has an IC50 of 8.6 nM. In the case of B11, the IC50 is reported as 4.7 nM. In the case of B12, the IC50 is reported as 4.9 nM. Binder B13 has an IC50 of 4.3 nM.

The binders below were run against T3, SARS-CoV-2 spike trimer S (Wuhan, SmT1) (SARS-CoV-2 Wuhan) (assay: SPR, antigen on chip).
T3 construct: extracellular domain
B14 showed a Kd of 0.52 nM, a koff of 8.14e-05 s⁻¹ and a kon of 157000 M⁻¹ s⁻¹. B15 showed a Kd of 17.8 nM, a koff of 0.000418 s⁻¹ and a kon of 23400 M⁻¹ s⁻¹. For B16, the Kd was 0.0918 nM, the koff was 1.46e-05 s⁻¹ and the kon was 160000 M⁻¹ s⁻¹. B17 was tested, and the Kd was 4.8 nM, the koff was 0.000887 s⁻¹ and the kon was 185000 M⁻¹ s⁻¹. In the case of B18, the Kd is reported as 5.01 nM, the koff is reported as 0.000799 s⁻¹ and the kon is reported as 159000 M⁻¹ s⁻¹. B19 was tested, and the Kd was 0.506 nM, the koff was 0.000176 s⁻¹ and the kon was 347000 M⁻¹ s⁻¹. B20 was tested, and the Kd was 0.236 nM, the koff was 0.000378 s⁻¹ and the kon was 1.6e+06 M⁻¹ s⁻¹. B21 gave a Kd of 7.56 nM, a koff of 0.00153 s⁻¹ and a kon of 202000 M⁻¹ s⁻¹. B22 gave a Kd of 1.02 nM, a koff of 0.000115 s⁻¹ and a kon of 112000 M⁻¹ s⁻¹.

What follows are binders tested against T1, SARS-CoV-2 S2 (aa686-1208) (Wuhan) (assay: SPR, antigen on chip).
B14: no binding. Binder B15 has a Kd of 5.21 nM, a koff of 0.000213 s⁻¹ and a kon of 40900 M⁻¹ s⁻¹. Binder B16 has a Kd of 0.299 nM, a koff of 3.38e-05 s⁻¹ and a kon of 113000 M⁻¹ s⁻¹. B17: no binding. B18 showed a Kd of 8.2 nM, a koff of 0.00084 s⁻¹ and a kon of 102000 M⁻¹ s⁻¹. B19 showed a Kd of 1.05 nM, a koff of 0.000284 s⁻¹ and a kon of 270000 M⁻¹ s⁻¹. B20: no binding. B21 gave a Kd of 6.8 nM, a koff of 0.00103 s⁻¹ and a kon of 152000 M⁻¹ s⁻¹. In the case of B22, the Kd is reported as 1.56 nM, the koff is reported as 0.00019 s⁻¹ and the kon is reported as 122000 M⁻¹ s⁻¹.

The binders below were run against T4, SARS-CoV-2 S1 (aa16-685) (Wuhan) (SARS-CoV-2 Wuhan, UniProt P0DTC2 16-685) (assay: SPR, antigen on chip).
T4 construct: NRC; FLAG, 6xHis tags
B14 was tested, and the Kd was 0.223 nM, the koff was 6.15e-05 s⁻¹ and the kon was 276000 M⁻¹ s⁻¹. B15: no binding. B16: no binding. B17 gave a Kd of 4.22 nM, a koff of 0.00157 s⁻¹ and a kon of 371000 M⁻¹ s⁻¹. B18: no binding. B19: no binding. B20 was tested, and the Kd was 0.378 nM, the koff was 0.000427 s⁻¹ and the kon was 1.13e+06 M⁻¹ s⁻¹. B21: no binding. B22: no binding.

Each binder was assayed against SARS-CoV-2 spike protein S on live virus, Wuhan (strain SARS-CoV-2/Canada/VIDO-01/2020) (SARS-CoV-2 (Wuhan), UniProt P0DTC2 14-1273) (assay: cell-based or functional assay).
In the case of B23, the “LVNA IC50” value is reported as about 100 nM.

These binders were tested against Human SARS-CoV-2_Wuhan S (SmT1) (SARS-CoV-2 (Wuhan), UniProt P0DTC2 14-1208) (assay: flow cytometry SVNA, VHH-Fc vs biotin-S binding to Vero E6 ACE2).
B23 was tested, and the IC50 was 23.8 nM, the IC99 was 1970 nM and the Imax % was 82%.
